In patent US20210047372A1 (Affibody, published 2021):
Numbering of substitutions follows the chain as printed. Numbers in names are those of the source.

B1: Y00032 (designed binder)
chain: MGSSHHHHHHGSSLAEAKEAAIAELDSKGVGAYQKSFIELAKSVEHVELLKEAILADLP
B2: Y00270 (designed binder)
chain: B1 chain with K35I, S36K
notes: Y00032 with K22I + S23K
B3: Y00292 (designed binder)
chain: B1 chain with S36K, E48Q, E52Q
notes: Y00032 with S23K + E35Q + E39Q
B4: Y00294 (designed binder)
chain: B1 chain with K35I, S36K, E48Q, A56K
notes: Y00270 with E35Q + A43K
B5: Y00293 (designed binder)
chain: B1 chain with K35I, S36K, E48Q, E52Q
notes: Y00270 with E35Q + E39Q; also called Y000293
B6: Y00295 (designed binder)
chain: B1 chain with K35I, S36K, E48Q, E52Q, A56K
notes: Y00270 with E35Q + E39Q + A43K
B7: Y02303 (designed binder)
chain: MGSSHHHHHHGSSLAEAKEAAIAELDSKGVGAEEIKWIQNAWSVEGVQIMKQQILAELPA
notes: From library Ylib002Naive.I
B8: Y02337 (designed binder)
chain: B7 chain with E33A, N40H, W42S, S43T, I49G, M50R
notes: From library Ylib002Naive.I
B9: Y02309 (designed binder)
chain: MGSSHHHHHHGSSLAEAKEAAIAELDSKGVGADLIKKIQKAESVEGVQFWKQEILATLPA
notes: From library Ylib002Naive.I
B10: Y02330 (designed binder)
chain: B9 chain with D33E, K40H, T57Y
notes: From library Ylib002Naive.I
B11: Y00792 (designed binder)
chain: B9 chain with K40Q, E42S, T57Q
notes: From library Ylib002Naive.I
B12: Y02358 (designed binder)
chain: MGSSHHHHHHGSSLAEAKEAAIAELDSKGVGADDIKLIQDAPSVEGVQEIKQFILAQLPA
notes: From library Ylib002Naive.I
B13: Y02701 (designed binder)
chain: MGSSHHHHHHGSSLAEAKEAAIAELDSYGVGAGDIKDIQDALLVEIVQLLKQAILAVLPA
notes: Y02415 with K15Y
B14: Y02702 (designed binder)
chain: B13 chain with Y28K, Q39E
notes: Y02415 with Q26E
B15: Y02703 (designed binder)
chain: B13 chain with G33V, D34E, D37Q, Q39E, D40E
notes: Y02444 with K15Y + Q26E

These binders were tested against T1, insulin (UniProt P01308 25-54; P01308 90-110, limits assumed) (assay: SPR, Biacore T200; target immobilized on CM5, His6-tagged Y variant injected; 1:1 Langmuir).
T1 construct: Mature insulin has two chains (A and B) from one precursor; also called b-insulin
T1 sequence (P01308 25-54 limits assumed, form in doubt, chain 1 of 2): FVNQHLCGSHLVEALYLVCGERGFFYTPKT
T1 sequence (P01308 90-110 limits assumed, form in doubt, chain 2 of 2): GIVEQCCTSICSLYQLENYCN
Protocol: (§1) Kinetic constants (kₐ and kd) and affinities (KD) were determined for Hiss-tagged Y variants using a Biacore T200 instrument (GE Healthcare). Target proteins C4, IL-6 and insulin, respectively, were immobilized in separate flow cells on the carboxylated dextran layer of different CM5 chip surfaces (GE Healthcare).
(§2) Immobilization was performed using amine coupling chemistry according to the manufacturer's protocol and PBS pH 7.4 supplemented with 0.1 Tween20 (PBST 0.1%) as running buffer. The ligand immobilization levels on the surfaces were 3280-8830 RU for C4, 495-1184 RU for IL-6, and 270-282 RU for insulin. One flow cell surface on each chip was activated and deactivated for use as blank during analyte injections. In the kinetic experiment, PBST 0.1% was used as running buffer at a flow rate of 30 μl/min. The analytes, i.e. Y variants, were each diluted in PBST 0.1 buffer at concentrations of 1000, 500, 100, 50 and 10 nM and injected for 5 min, followed by dissociation in running buffer for 3 min. After dissociation, the surfaces were regenerated with one injection of 30 μl 10 mM HCl. Kinetic constants were calculated from the sensorgrams using the Langmuir 1:1 model of Biacore T200 Evaluation software 2.0 (GE Healthcare).
In the case of B1, the Kd is reported as 63 nM.
Work on B2 yielded a Kd of 77 nM.
In the case of B3, the Kd is reported as 450 nM.
B4 showed a Kd of 490 nM.
With B5 the Kd was 490 nM.
In the case of B6, the Kd is reported as 580 nM.

These binders were tested against T2, complement component 4 (C4) (UniProt P0C0L4 20-675; P0C0L4 680-1446; P0C0L4 1454-1744, limits assumed) in the same assay as above.
T2 construct: Natural C4 is a three-chain protein (alpha, beta, gamma) made from one precursor; Biotinylated for ELISA, amine-coupled to the chip for SPR; also called b-C4
T2 sequence (P0C0L4 20-675 limits assumed, chain 1 of 3): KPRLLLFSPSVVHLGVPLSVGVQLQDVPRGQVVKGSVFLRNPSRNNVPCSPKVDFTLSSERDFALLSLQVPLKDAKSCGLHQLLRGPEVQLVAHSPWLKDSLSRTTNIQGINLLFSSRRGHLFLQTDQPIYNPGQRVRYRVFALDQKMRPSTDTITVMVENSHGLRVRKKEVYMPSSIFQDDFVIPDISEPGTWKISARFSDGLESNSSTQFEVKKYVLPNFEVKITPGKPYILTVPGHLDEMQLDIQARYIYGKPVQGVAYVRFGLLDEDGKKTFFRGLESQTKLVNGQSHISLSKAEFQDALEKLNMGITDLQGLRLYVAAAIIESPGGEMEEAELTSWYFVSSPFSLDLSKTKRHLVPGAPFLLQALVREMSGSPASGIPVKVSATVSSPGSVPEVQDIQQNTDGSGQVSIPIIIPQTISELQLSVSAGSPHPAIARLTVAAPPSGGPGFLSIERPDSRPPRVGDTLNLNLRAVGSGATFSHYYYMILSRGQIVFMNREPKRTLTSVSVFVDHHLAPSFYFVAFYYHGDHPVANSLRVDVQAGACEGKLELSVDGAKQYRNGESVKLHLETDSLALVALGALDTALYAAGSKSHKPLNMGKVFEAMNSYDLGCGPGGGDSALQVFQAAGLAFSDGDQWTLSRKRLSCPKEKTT
T2 sequence (P0C0L4 680-1446 limits assumed, chain 2 of 3): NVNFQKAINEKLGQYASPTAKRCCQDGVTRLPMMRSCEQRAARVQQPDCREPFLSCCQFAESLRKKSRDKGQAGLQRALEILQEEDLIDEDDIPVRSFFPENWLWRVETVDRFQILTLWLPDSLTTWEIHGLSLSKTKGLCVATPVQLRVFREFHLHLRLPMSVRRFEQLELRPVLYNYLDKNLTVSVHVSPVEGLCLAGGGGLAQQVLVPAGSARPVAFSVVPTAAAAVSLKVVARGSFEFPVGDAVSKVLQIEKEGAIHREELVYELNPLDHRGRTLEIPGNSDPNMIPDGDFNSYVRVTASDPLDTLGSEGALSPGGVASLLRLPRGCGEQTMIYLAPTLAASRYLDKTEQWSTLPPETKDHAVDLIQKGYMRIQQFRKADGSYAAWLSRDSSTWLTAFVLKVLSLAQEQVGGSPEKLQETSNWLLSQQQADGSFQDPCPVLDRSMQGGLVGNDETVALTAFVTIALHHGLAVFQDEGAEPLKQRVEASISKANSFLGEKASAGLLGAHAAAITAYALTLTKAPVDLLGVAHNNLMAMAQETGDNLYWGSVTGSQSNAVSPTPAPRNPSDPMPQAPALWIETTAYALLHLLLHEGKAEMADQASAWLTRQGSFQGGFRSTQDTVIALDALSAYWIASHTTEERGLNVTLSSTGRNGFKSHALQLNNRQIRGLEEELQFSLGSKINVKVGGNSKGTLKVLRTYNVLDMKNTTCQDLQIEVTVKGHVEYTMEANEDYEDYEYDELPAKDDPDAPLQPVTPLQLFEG
T2 sequence (P0C0L4 1454-1744 limits assumed, chain 3 of 3): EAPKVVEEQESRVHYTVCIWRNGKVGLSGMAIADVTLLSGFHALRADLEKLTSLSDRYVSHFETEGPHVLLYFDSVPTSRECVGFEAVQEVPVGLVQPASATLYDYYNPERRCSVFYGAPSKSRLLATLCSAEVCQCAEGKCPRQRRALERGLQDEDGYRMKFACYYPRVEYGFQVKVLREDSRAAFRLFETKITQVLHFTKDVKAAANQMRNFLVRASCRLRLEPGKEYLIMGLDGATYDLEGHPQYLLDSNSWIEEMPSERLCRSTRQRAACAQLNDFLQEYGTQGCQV
Protocol: as §1, §2
B7 showed a Kd of 2200 nM, a koff of 0.21 s⁻¹ and a kon of 96000 M⁻¹ s⁻¹.
B8 was tested, and the Kd was 1900 nM, the koff was 0.81 s⁻¹ and the kon was 420000 M⁻¹ s⁻¹.
Binder B9 has a Kd of 70 nM, a koff of 0.0025 s⁻¹ and a kon of 36000 M⁻¹ s⁻¹.
Work on B10 yielded a Kd of 48 nM, a koff of 0.0046 s⁻¹ and a kon of 96000 M⁻¹ s⁻¹.
In the case of B11, the Kd is reported as 62 nM, the koff is reported as 0.0017 s⁻¹ and the kon is reported as 27000 M⁻¹ s⁻¹.
B12 showed a Kd of 16 nM, a koff of 0.0014 s⁻¹ and a kon of 90000 M⁻¹ s⁻¹.

These binders were tested against T3, interleukin 6 (IL-6) (UniProt P05231 30-212) in the same assay as above.
T3 construct: also called b-IL-6
Protocol: as §1, §2
For B13, the Kd was 210 nM, the koff was 0.0036 s⁻¹ and the kon was 21000 M⁻¹ s⁻¹.
B14 showed a Kd of 440 nM, a koff of 0.007 s⁻¹ and a kon of 16000 M⁻¹ s⁻¹.
Work on B15 yielded a Kd of 120 nM, a koff of 0.0025 s⁻¹ and a kon of 21000 M⁻¹ s⁻¹.

Target: T1, insulin
Assay: as above
Remark: another data set of the same source
Protocol: as §1, §2
Binder B1 has a Kd of 63 nM.
For B2, the Kd was 77 nM.
